We go through 2 substances from PMC6581707.

Test [1] addresses exoPB4SF-Q5C mutant (Photobacterium sp. FC615). The test is described as follows: SEC; Superdex 200 10/300 GL, 10 mM Tris-HCl, 100 mM NaCl, pH 8.0, with or without 5 mM DTT; detection at 280 nm; monomer to dimer.
Test [2] addresses CS/DS 4-O-endosulfatase endoVB4SF from Vibrio sp. FC509 (Vibrio sp. FC509). The test is described as above.

By stoichiometry N is commonly meant a count of units in the complex or per binding partner. With exoPB4SF-Q5C mutant (enzyme), the stoichiometry N in test [1] turned out to be 2.

On to “CS/DS 4-O-endosulfatase endoVB4SF from Vibrio sp. FC509 (enzyme)”, for which the stoichiometry N in test [2] was 2.
